Assays:
Assay in all cases: cell-based or functional assay
[1] = target: HLA-A11 on COS7/A11 cells expressing the WT KRAS minigene (23-mer SEQ ID NO: 118) (human, UniProt A*11:01)
[2] = target: HLA-A11 on COS7/A11 cells expressing the KRAS G12D minigene (23-mer SEQ ID NO: 119) (human, UniProt A*11:01)
[3] = target: HLA-A11 on COS7/A11 cells expressing the KRAS G12V minigene (23-mer SEQ ID NO: 120) (human, UniProt A*11:01)
[4] = target: KRAS G12V 10-mer peptide … (SEQ ID NO: 33) presented by HLA-A11 on pulsed cells (human, UniProt A*11:01)
[5] = target: T1, WT KRAS 10-mer peptide (SEQ ID NO: 30) presented by HLA-A11 on pulsed cells (human, UniProt A*11:01)
[6] = target: T2, KRAS G12D 9-mer peptide KRAS8-16 … (SEQ ID NO: 34) presented by HLA-A11 on pulsed cells (human, UniProt A*11:01)
[7] = target: KRAS G12D 9-mer peptide KRAS7-15 … (SEQ ID NO: 124) presented by HLA-A11 on pulsed cells (human, UniProt A*11:01)
[8] = target: T1, WT KRAS 10-mer peptide (SEQ ID NO: 30) …; remark: listed apart in the source
[9] = target: T2, KRAS G12D 9-mer peptide KRAS8-16 … (SEQ …); remark: listed apart in the source
[10] = target: WT KRAS 9-mer peptide (SEQ ID NO: 31) presented by HLA-A11 on pulsed cells (human, UniProt A*11:01)

B1: TRAV12N-3*01/BV4*01 murine anti-KRAS G12D TCR (SEQ ID NOs: 11 and 12) (TCR, V domains shown)
V domain 1: GDSVTQTEGLVTLTEGLPVMLNCTYQTIYSNPFLFWYVQHLNESPRLLLKSFTDNKRTEHQGFHATLHKSSSSFHLQKSSAQLSDSALYYCALRGNAGAKLTFGGGTRLTVRP
V domain 2: ETAVFQTPNYHVTQVGNEVSFNCKQTLGHDTMYWYKQDSKKLLKIMFSYNNKQLIVNETVPRRFSPQSSDKAHLNLRIKSVEPEDSAVYLCASSSRDWSAETLYFGSGTRLTVLE
With B1 the “IFN-γ, PBL + COS/A11 minigene transfectant” value [1] was 130 pg/mL, the “IFN-γ, PBL + COS/A11 minigene transfectant” value [2] was over 10000 pg/mL and the “IFN-γ, PBL + COS/A11 minigene transfectant” value [3] was 126 pg/mL. For the same binder, the “IFN-γ, PBL + COS7/A11 pulsed at 1 × 10^-6 M” value (from here on “IFN-γ … at 1 × 10^-6 M”) [4] was 97 pg/mL, the “IFN-γ, PBL + COS7/A11 pulsed at 1 × 10^-7 M” value (shortened to “IFN-γ … at 1 × 10^-7 M”) [4] was 83 pg/mL and the “IFN-γ, PBL + COS7/A11 pulsed at 1 × 10^-8 M” value (“IFN-γ … at 1 × 10^-8 M” below) [4] was 86 pg/mL. The “IFN-γ, PBL + COS7/A11 pulsed at 1 × 10^-9 M” value (from here on “IFN-γ … at 1 × 10^-9 M”) [4] was 88 pg/mL, the “IFN-γ, PBL + COS7/A11 pulsed at 1 × 10^-10 M” value (shortened to “IFN-γ … at 1 × 10^-10 M”) [4] was 88 pg/mL and the “IFN-γ, PBL + COS7/A11 pulsed at 1 × 10^-11 M” value (“IFN-γ … at 1 × 10^-11 M” for short) [4] was 86 pg/mL. The “IFN-γ, PBL + COS7/A11 pulsed at 1 × 10^-12 M” value (“IFN-γ … at 1 × 10^-12 M” below) [4] was 96 pg/mL, the “IFN-γ, PBL + COS7/A11 pulsed at 1 × 10^-13 M” value (shortened to “IFN-γ … at 1 × 10^-13 M”) [4] was 97 pg/mL and the “IFN-γ … at 1 × 10^-6 M” value [5] was 78 pg/mL. For the same binder, the “IFN-γ … at 1 × 10^-7 M” value [5] was 88 pg/mL, the “IFN-γ … at 1 × 10^-8 M” value [5] was 102 pg/mL and the “IFN-γ … at 1 × 10^-9 M” value [5] was 99 pg/mL. For the same binder, the “IFN-γ … at 1 × 10^-10 M” value [5] was 95 pg/mL, the “IFN-γ … at 1 × 10^-11 M” value [5] was 86 pg/mL and the “IFN-γ … at 1 × 10^-12 M” value [5] was 102 pg/mL. For the same binder, the “IFN-γ … at 1 × 10^-13 M” value [5] was 98 pg/mL, the “IFN-γ … at 1 × 10^-6 M” value [6] was 136 pg/mL and the “IFN-γ … at 1 × 10^-7 M” value [6] was 95 pg/mL. For the same binder, the “IFN-γ … at 1 × 10^-8 M” value [6] was 99 pg/mL, the “IFN-γ … at 1 × 10^-9 M” value [6] was 90 pg/mL and the “IFN-γ … at 1 × 10^-10 M” value [6] was 85 pg/mL. For the same binder, the “IFN-γ … at 1 × 10^-11 M” value [6] was 85 pg/mL, the “IFN-γ … at 1 × 10^-12 M” value [6] was 94 pg/mL and the “IFN-γ … at 1 × 10^-13 M” value [6] was 115 pg/mL. The “IFN-γ … at 1 × 10^-6 M” value [7] was 87 pg/mL, the “IFN-γ … at 1 × 10^-7 M” value [7] was 91 pg/mL and the “IFN-γ … at 1 × 10^-8 M” value [7] was 72 pg/mL. The “IFN-γ … at 1 × 10^-9 M” value [7] was 90 pg/mL, the “IFN-γ … at 1 × 10^-10 M” value [7] was 90 pg/mL and the “IFN-γ … at 1 × 10^-11 M” value [7] was 95 pg/mL. For the same binder, the “IFN-γ … at 1 × 10^-12 M” value [7] was 83 pg/mL, the “IFN-γ … at 1 × 10^-13 M” value [7] was 112 pg/mL and the “IFN-γ, PBL + Cos7/A11 pulsed at 10^-6 M” value [8] was 82 pg/mL. The “IFN-γ, PBL + Cos7/A11 pulsed at 10^-7 M” value [8] was 77 pg/mL, the “IFN-γ, PBL + Cos7/A11 pulsed at 10^-8 M” value [8] was 85 pg/mL and the “IFN-γ, PBL + Cos7/A11 pulsed at 10^-9 M” value [8] was 102 pg/mL. For the same binder, the “IFN-γ, PBL + Cos7/A11 pulsed at 10^-10 M” value [8] was 88 pg/mL, the “IFN-γ, PBL + Cos7/A11 pulsed at 10^-11 M” value [8] was 81 pg/mL and the “IFN-γ, PBL + Cos7/A11 pulsed at 10^-12 M” value [8] was 76 pg/mL. For the same binder, the “IFN-γ, PBL + Cos7/A11 pulsed at 10^-13 M” value [8] was 92 pg/mL, the “IFN-γ, PBL + Cos7/A11 pulsed at 10^-6 M” value [9] was 125 pg/mL and the “IFN-γ, PBL + Cos7/A11 pulsed at 10^-7 M” value [9] was 86 pg/mL. For the same binder, the “IFN-γ, PBL + Cos7/A11 pulsed at 10^-8 M” value [9] was 90 pg/mL, the “IFN-γ, PBL + Cos7/A11 pulsed at 10^-9 M” value [9] was 92 pg/mL and the “IFN-γ, PBL + Cos7/A11 pulsed at 10^-10 M” value [9] was 95 pg/mL. The “IFN-γ, PBL + Cos7/A11 pulsed at 10^-11 M” value [9] was 88 pg/mL, the “IFN-γ, PBL + Cos7/A11 pulsed at 10^-12 M” value [9] was 91 pg/mL and the “IFN-γ, PBL + Cos7/A11 pulsed at 10^-13 M” value [9] was 84 pg/mL. For the same binder, the “IFN-γ, PBL + Cos7/A11 pulsed at 10^-6 M” value [10] was 90 pg/mL, the “IFN-γ, PBL + Cos7/A11 pulsed at 10^-7 M” value [10] was 96 pg/mL and the “IFN-γ, PBL + Cos7/A11 pulsed at 10^-8 M” value [10] was 95 pg/mL. For the same binder, the “IFN-γ, PBL + Cos7/A11 pulsed at 10^-9 M” value [10] was 88 pg/mL, the “IFN-γ, PBL + Cos7/A11 pulsed at 10^-10 M” value [10] was 95 pg/mL and the “IFN-γ, PBL + Cos7/A11 pulsed at 10^-11 M” value [10] was 84 pg/mL. For the same binder, the “IFN-γ, PBL + Cos7/A11 pulsed at 10^-12 M” value [10] was 105 pg/mL and the “IFN-γ, PBL + Cos7/A11 pulsed at 10^-13 M” value [10] was 103 pg/mL.
